Stoichiometry N data for 2 substances are collected here from publication PMC3912023.

The target of experiment [1] is CorA, endogenously expressed, purified from Methylomicrobium album BG8 (Methylomicrobium album BG8). Description: SEC; calibrated Superdex 75 16/60 gel filtration, 40 mM Tris-HCl pH 8.0, 0.5 M NaCl; data not shown.
Experiment [2] concerns the target Recombinant CorA (without the predicted signal peptide) (Methylomicrobium album BG8). Nature of the experiment: SEC; calibrated Superdex 75 16/60 gel filtration, 20 mM Tris-HCl pH 7.5, 1 mM CaCl2; data not shown.

A word on the stoichiometry N: it is the number of molecules, sites or subunits per partner or assembly.

In turn, “CorA, endogenously expressed, purified from Methylomicrobium album BG8 (natural protein)” registered a stoichiometry N in experiment [1] of 2.
As to “Recombinant CorA (without the predicted signal peptide) (natural protein)”, in experiment [2], the stoichiometry N was 2.
